The data set deals with the molecule itself. Description: mass photometry; Refeyn OneMP; CHIP at 50 nM final in 20 mM HEPES pH 8.0, 200 mM NaCl; self-association of CHIP (dimer, tetramer, hexamer, octamer, high MW).

Broadly, the stoichiometry N is a count of units in the complex or per binding partner.

B1: CHIP P228S, recombinant, C-terminal His tag (natural protein, human, UniProt Q9UNE7-1 1-303, looked up)
chain: MKGKEEKEGGARLGAGGGSPEKSPSAQELKEQGNRLFVGRKYPEAAACYGRAITRNPLVAVYYTNRALCYLKMQQHEQALADCRRALELDGQSVKAHFFLGQCQLEMESYDEAIANLQRAYSLAKEQRLNFGDDIPSALRIAKKKRWNSIEERRIHQESELHSYLSRLIAAERERELEECQRNHEGDEDDSHVRAQQACIEAKHDKYMADMDELFSQVDEKRKKRDISDYLCGKISFELMREPCITPSGITYDRKDIEEHLQRVGHFDPVTRSPLTQEQLIPNLAMKEVIDAFISENGWVEDY
notes: CHIP (STUB1), SCA48-associated U-box mutation P228S
Take B1: the binding result is recorded as “binds”.

B2: CHIP R225*, recombinant (natural protein, human, UniProt Q9UNE7-1 1-303, looked up)
chain: MKGKEEKEGGARLGAGGGSPEKSPSAQELKEQGNRLFVGRKYPEAAACYGRAITRNPLVAVYYTNRALCYLKMQQHEQALADCRRALELDGQSVKAHFFLGQCQLEMESYDEAIANLQRAYSLAKEQRLNFGDDIPSALRIAKKKRWNSIEERRIHQESELHSYLSRLIAAERERELEECQRNHEGDEDDSHVRAQQACIEAKHDKYMADMDELFSQVDEKRKK
In the case of B2, the “stoichiometry N” value stood at 2.
